Experiment [1] concerns the target T1, IscU_(I108M)-(his)6, E. coli IscU with the Ile108Met substitution (E. coli, UniProt P0ACD4 1-128, I108M).
T1 construct: IscU, Fe-S cluster scaffold protein of E. coli K-12 MG1655; coding region amplified from pIscUIM and cloned NdeI/HindIII into pET21a+; the methods say the proteins were mixed with Fe(SO4)2(NH4)2, L-cysteine and DTT; By gel filtration it exists mainly as a dimer; also called IscUIM; His-tagged IscUIM; not shown: His6, C-terminal, kept
Briefly: co-elution on anion exchange chromatography (QFF); purified His-tagged proteins mixed anaerobically 1:1:1 (144 uM each) for 40 min with 4-fold excess Fe(SO4)2(NH4)2, 10-fold excess L-cysteine, 5 mM DTT in 50 mM Tris-HCl pH 8; loaded on a 1-mL QFF column, eluted with a gradient to 1 M NaCl; fractions analysed by SDS-PAGE; the single proteins elute at lower salt. The following applies: both partners purified.

The target of experiment [2] is T2, (his)6-IscS, E. coli cysteine desulfurase IscS (E. coli, UniProt P0A6B7 1-404).
T2 construct: IscS, cysteine desulfurase of E. coli; not shown: His6, N-terminal, kept
The experiment is described as above. The conditions noted are these: both partners purified.

B1: CyaY-(his)6, E. coli frataxin homolog CyaY (natural protein, UniProt P27838 1-106, looked up)
chain: MNDSEFHRLADQLWLTIEERLDDWDGDSDIDCEINGGVLTITFENGSKIIINRQEPLHQVWLATKQGGYHFDLKGDEWICDRSGETFWDLLEQAATQQAGETVSFR
notes: CyaY, frataxin homolog of E. coli; not shown: His6, C-terminal, kept
As for B1, the binding result in experiment [1] and in experiment [2] was “binds” throughout.

The values above are taken from article PMC4440780, “Turning Escherichia coli into a Frataxin-Dependent Organism” (PLoS Genetics, 2015).
